# Results as given in US20160289321A1 (SHANGHAI HENGRUI PHARMACEUTICAL, published 2016).
# Where two headings read alike, the source gives them in different places.
# B1: IL17-mAb049 (antibody, V domains shown)
# VH: HVQLQQSGADLVRPGASVTLSCKASGYIFTDYEVHWVKQTPVHGLEWIGVIDPGTGGVAYNQKFEGKATLTADDSSNTAYMELRSLTSEDSAVYYCTRYSLFYGSSPYAMDYWGQGTSVTVSS
# VL: QIVLTQSPAIMSASPGEKVTITCSASSSVNYMHWFQQKPGTSPKLWIYRTSNLASGVPVRFSGSGSGTSYSLTISRMEAEDAATYYCQQRSSYPWTFGGGTNLEIK
# notes: Murine monoclonal antibody from a hybridoma; also called murine IL-17A mouse antibody mAb049
# B2: Hu049-18 (antibody, V domains shown)
# VH: EVQLVQSGAEVKKPGASVKVSCKASGYTFTDYEVHWVRQAPGQGLEWMGVIDPGTGGVAYNQKFEGRVTMTADTSTSTAYMELRSLRSDDTAVYYCTRYSLFYGSSPYAMDYWGQGTLVTVSS
# VL: EIVLTQSPDFQSVTPKEKVTITCSASSSVNYMHWFQQKPDQSPKLWIYRTSNLASGVPSRFSGSGSGTDYTLTINSLEAEDAATYYCQQRSSYPWTFGQGTKLEIKR
# notes: Humanized mAb049
# B3: Hu049-19 (antibody, V domains shown)
# VH: EVQLVQSGAEVKKPGASVKVSCKASGYTFTDYEVHWVRQAPGQGLEWIGVIDPGTGGVAYNQKFEGRVTMTADTSTSTAYMELRSLRSDDTAVYYCTRYSLFYGSSPYAMDYWGQGTLVTVSS
# VL: EIVLTQSPDFQSVTPKEKVTITCSASSSVNYMHWFQQKPDQSPKLWIYRTSNLASGVPSRFSGSGSGTDYTLTINSLEAEDAATYYCQQRSSYPWTFGQGTKLEIKR
# notes: Humanized mAb049
# B4: Hu049-17 (antibody, V domains shown)
# VH: EVQLVQSGAEVKKPGASVKVSCKASGYTFTDYEVHWVRQAPGQGLEWMGVIDPGTGGVAYNQKFEGRVTMTTDTSTSTAYMELRSLRSDDTAVYYCTRYSLFYGSSPYAMDYWGQGTLVTVSS
# VL: EIVLTQSPDFQSVTPKEKVTITCSASSSVNYMHWFQQKPDQSPKLWIYRTSNLASGVPSRFSGSGSGTDYTLTINSLEAEDAATYYCQQRSSYPWTFGQGTKLEIKR
# notes: Humanized mAb049
# B5: Hu049-20 (antibody, V domains shown)
# VH: EVQLVQSGAEVKKPGASVKVSCKASGYTFTDYEVHWVRQAPGQGLEWIGVIDPGTGGVAYNQKFEGRATLTADDSTNTAYMELRSLRSDDTAVYYCTRYSLFYGSSPYAMDYWGQGTLVTVSS
# VL: EIVLTQSPDFQSVTPKEKVTITCSASSSVNYMHWFQQKPDQSPKLWIYRTSNLASGVPSRFSGSGSGTDYTLTINSLEAEDAATYYCQQRSSYPWTFGQGTKLEIKR
# Experiments:
# [1] = biological target: T1, biotin-labeled IL-17A (human, UniProt Q16552 24-155, limits assumed, biotin-labeled (sites not given)); assay: receptor blocking ELISA (RBA): antibody titrated against biotin-labeled IL-17A binding to captured IL-17RA-Fc
# T1 construct: also called huIL-17
# Method: 6. The positive controls, Lilly mAb and Novartis mAb, or antibodies of the present invention were diluted at a 1:5 ratio, with an initial concentration of 40 μg/ml. mIgG was diluted using the same method. 50 μl of diluted positive control, murine antibody of the present invention, or mIgG were added to each well, and, 50 μof 0.2nM biotin-labeled IL-17A were added to the wells containing diluted positive control or the antibody of the present invention, mixed gently and the plates were thermostatically incubated at 37° C. for 1 h.
# 7. The plates were washed with PBST three times; 8. 100 μl of HRP-labeled streptavidin complex (1:5000) were added to each well, and the plates were thermostatically incubated at 37° C. for 1 h;
# [2] = biological target: T2, Human IL-17A (hIL-17A), expressed in HEK293E (human, UniProt Q16552 24-155); assay: SPR (Biacore X100), antibody captured on the chip, IL-17A as analyte
# Method: (§1) 2. Binding kinetics Test: FC1 (Flow cell 1) was used as the reference channel, FC2 (Flow cell 2) was used as the sample channel, and murine or humanized control antibody or the antibody of the present invention was captured in the FC2 channel at 300RU, followed by the injection of different concentrations of IL-17 (including hIL-17A, MuIL-17, Rat IL-17). Cycle conditions were: injecting analytes into all FC channels at 30 μl/min for 3min, dissociation for 20 min, injecting 10 mM Glycine, pH 1.5, for 60 s (at rate of 10 μl/min) for surface regeneration. The difference between the signal with captured antibody and the signal without captured antibody was calculated using Biacore X100 evaluation software ver 2.0 (Biacore), and the running buffer was 10 mM Hepes, […], 3 mM EDTA, 0.05% Tween-20.
# 1. Hybridomas obtained in Example 1 were tested using the above method, and the results were as follows: […]
# [3] = biological target: T2, Human IL-17A (hIL-17A), expressed in …; assay: indirect ELISA, hIL-17A or hIL-17A/F on streptavidin plates, OD450 against Lilly mAb and Novartis mAb
# Method: 6. The positive controls, Lilly mAb and Novartis mAb, or murine mAbs antibodies of the present invention were titrated at a 1:5 dilution, with an initial concentration of 1 μg/ml. 100 μl of diluted positive control or murine antibody of the present invention were added to each well, and the plates were thermostatically incubated at 37° C. for 1 h. Each concentration was tested in duplicate;
# 10. The OD value at a wavelength of 450 nm was read on an ELISA microplate reader (Molecular Devices, Spectra Max).
# 11. The OD values of the murine mAb antibodies were compared to those of the positive controls. Monoclonal cell lines with a ratio greater than 1, including IL17-mAb049, were screened.
# [4] = biological target: T3, Recombinant human IL-17A/F (rhIL-17A/F), R&D System Cat No.5194-IL/CF (human, UniProt Q16552 20-155; Q96PD4 31-163, limits assumed); assay: cell-based or functional assay
# [5] = biological target: T4, Recombinant human IL-17A (rhIL-17A), R&D Systems Cat.No.317-ILB (human, UniProt Q16552 20-155, limits assumed); assay: cell-based or functional assay
# [6] = biological target: T3, Recombinant human IL-17A/F …; assay: cell-based or functional assay; remark: listed apart in the source
# [7] = biological target: Cyno IL-17A (cynomolgus, UniProt A0A2K5TTB0 24-155); assay: cell-based or functional assay
# [8] = biological target: T4, Recombinant human IL-17A (rhIL-17A), …; assay: cell-based or functional assay; remark: listed apart in the source
# [9] = biological target: T5, Rat IL-17A (rat, UniProt Q61453 18-150, limits assumed); assay: SPR (Biacore X100), antibody captured on the chip, rat IL-17 as analyte
# T5 sequence (looked up): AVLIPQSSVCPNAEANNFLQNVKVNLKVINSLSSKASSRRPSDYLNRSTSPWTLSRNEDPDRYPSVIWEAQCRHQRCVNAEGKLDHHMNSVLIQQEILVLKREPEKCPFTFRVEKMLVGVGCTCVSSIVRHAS
# Method: as §1
# (§2) 2. Humanized IL-17 antibodies obtained from Example 2 were tested using the above method, and the results were as follows: […]
# [10] = biological target: T2, Human IL-17A (hIL-17A), expressed in …; assay: SPR (Biacore X100), antibody captured on the chip, IL-17A as analyte; remark: listed apart in the source
# Method: as §1, §2
# [11] = biological target: T6, Mouse IL-17A (Mu IL-17A) (mouse, UniProt Q62386 26-158); assay: SPR (Biacore X100), antibody captured on the chip, mouse IL-17 as analyte
# T6 sequence (looked up): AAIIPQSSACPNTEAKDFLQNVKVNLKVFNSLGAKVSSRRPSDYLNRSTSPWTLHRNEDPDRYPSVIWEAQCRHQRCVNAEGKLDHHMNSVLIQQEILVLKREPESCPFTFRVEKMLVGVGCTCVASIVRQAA
# Method: as §1, §2
# Chain of Cyno IL-17A (A0A2K5TTB0 entry or part of it): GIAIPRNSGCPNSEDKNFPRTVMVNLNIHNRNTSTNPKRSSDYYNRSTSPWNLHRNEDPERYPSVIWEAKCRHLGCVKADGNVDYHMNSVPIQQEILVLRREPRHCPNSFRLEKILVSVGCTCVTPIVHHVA
# T3 sequence (Q16552 20-155 limits assumed, chain 1 of 2): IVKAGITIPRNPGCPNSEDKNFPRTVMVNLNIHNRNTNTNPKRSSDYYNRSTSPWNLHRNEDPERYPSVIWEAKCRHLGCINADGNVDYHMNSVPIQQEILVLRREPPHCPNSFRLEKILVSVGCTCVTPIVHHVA
# T3 sequence (Q96PD4 31-163 limits assumed, chain 2 of 2): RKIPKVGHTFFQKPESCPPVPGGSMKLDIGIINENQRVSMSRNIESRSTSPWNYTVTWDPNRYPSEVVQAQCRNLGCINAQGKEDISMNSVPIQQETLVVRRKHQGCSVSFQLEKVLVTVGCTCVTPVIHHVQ
# T4 sequence (Q16552 20-155 limits assumed): as the sequence (Q16552 20-155 limits assumed, chain 1 of 2) above
# T2 sequence (Q16552 24-155 limits assumed): as the sequence (A0A2K5TTB0 entry or part of it) above, with A3T, S8P, S34N, V77I, K78N, R104P counted along it
# T1 sequence (Q16552 24-155 limits assumed): as the sequence (A0A2K5TTB0 entry or part of it) above, with A3T, S8P, S34N, V77I, K78N, R104P counted along it
Binder,IC50 [1],Kd [2],ratio of OD value to that of the positive controls [3],"huIL-17A/F Bioassay (IC50, nM) [4]","huIL-17 Bioassay (IC50, nM) [5]","huIL-17A/F Bioassay (IC50, nM) [6]",Cyno IL-17A (bioassay IC50) [7],"huIL-17 Bioassay (IC50, nM) [8]",Kd [9],Kd [10],Kd [11]
B1,70 pM,26.2 pM,1,0.46 nM,0.04 nM,,,,,,
B2,,,,,,0.684 nM,33 pM,0.04 nM,477 pM,< 1 pM,68.1 pM
B3,,,,,,0.411 nM,39 pM,0.066 nM,60 pM,2.68 pM,77.1 pM
B4,,,,,,0.406 nM,30 pM,0.061 nM,1060 pM,< 1 pM,137 pM
B5,,,,,,0.674 nM,28 pM,0.065 nM,,,
